From the DeepSol protein solubility set

Assay: soluble on expression in E. coli; label from the status in PepcDB or PDB records

Sequence | soluble on expression in E. coli
MAPPAQPPPVAVKNTKEAWTKFMKKKAEQAVYPSKESSTLQPKYLFDASTLVLPMCFECRRASRHLEMAINLCSICRANFEAQIASRFFRHDVLLVKRKLEANQDTTNLKE | not soluble
MAPPVLKNEDSDLAVREPAAKKSKKSNGKAQAVKSESSESMFMTEATTDENIYPDATFQSYEEFDQKFNVWKAKNLHPFRVASSESLRTEDGSISEKFKYRYVVFHCARYGVPRMRGEGKRPNQNYLPCSCTAMIRLNFQFHEQCLRLTSLETRHSNHTICKDLYEKMCVKEEKRKHVTPRRTMSGPKSRSSSVATAGNADTSLISDRSINVKKEPSEERADSEHSHGQSPVDLHYEVTRPYEVSPSAPISEITTPFVLPTQKVGLNDLVPTSQFSPMDYQSLQNQIILNQVKLNAMTNNVYNPFGNWPASSLVPTPAPPFLTPTPSQVSPALSSSVDENEAPKIFHSLEAVRPIPLRPSQNSAFYQMLNSSSTSPIIAVTKAEVDSVLGAASRLLNDNHLPEDVLHSRVKQLNGLISQWTHS | not soluble
MAPSTEDPDTVVEAQRRGSFSKKKNANGWNKVELVDQCAKQMGSEDKQPGGGDVKTENDPSKNGLGSATSNFIQSSVPPSHQTLSNPLQLSPPAEASVAQQSGASQVFPTFQAALGASSDELLQPNATSSSTSSSASTSSIVPVVKFTNQTAPNGSTVATSVGQNVRLTINGKRVGRPPGTFKRPQNNAANSSNSGNDSDMMGDHDLTCRWKSCNSSFQTLKALVDHVQESHVQSTEQEHHAWRCEWEGCDRNETFKALYMLIVHVRRHTGEKPNKCEYPGCGKEYSRLENLKTHRRTHTGEKPYKCEFADCEKAFSNASDRAKHQNRTHSNLKPYSCQIPQCTKSYTDPSSLRKHIKAVHGDDEYEKAKKSRPANYSNRRRPDHRLAPPTGAMSHPYLATPNSGASVVAHSSVHQQNFINMALAQHHHNAQRAQQLMAATGNVMPMMDPASAAAAAQAQAHHQAQAQMLQTHMMQQAQIQAAAQMQAQVQHQAAMQAHAMQQAQMVLQNNLLGAQSLLSPFSPLLPPSRAPNVMAMLQTPPTPTSVAPMFDIMTSRAPMAPVVSAPTAPAPLVPAPVPASPVFDELREQMREVEPLQQQQQQEPMDQDLQDIRVDGDSDDEDEEEPRTPSGALLLPRGGNNGDGGFGGSGSSRASSGSGTMELSAAPISQNGSRASGSGERGMRSFLIADILQLAADFQNERLLSDVLDLAIFDTRDVRSLHNIYQVYIRAHKAIPITRRPLDWNETHQLHNLYHDPRFNRAEHQDSPAIRDRDTRFWRTIAEANTMRQRQIEPVPLDDDDEGYFDEMVHRVQNGRLNEQFMEGFESDDDDGFEDEDDVPGLGIAVYRGRRRVRREALKQANLDIQEAETAGRNVGGFGDEEDRNNRGHDQDRSFLDHYYPPMVVVVETESPQIVRDQEMMRQFEEAKKNVETDEIKKRAEAMQFGTSSSHHHTKTLLIQRALFDKTSSVRRSLLQFITISVDQEELRQSCHATSAPQGAHVVHNVVDEFDSIMRAQEDSNNRILLSLDIPAPSAVTGVSGSITHADNSALQLQQEQPTSSFSSWFPEDDPIYALPPPPPPPAPPRRRRSADNKDDSENIPKKPRHQF | not soluble
MAPTQAQKVLEAFEDFLKCLDLESYQEKYRPIKTVEQDLPRELNPLPDLYDHYWKPNGNTLHFPDFETFFDQWWEKRLRPLNEFIRKYFWGCSYEFVRLGLEARLYRTAVSIWTQFHFCYRWNASCQLRLTATWELDAQGIDAQIQAEDRLIGIQIKKETYRSEAREGNRFLRRREHSALLEVPYTLQSPEELERKAQRARTREEAYRLWVKIAHHLERLPNGFVIFRESYVKDLENFLKQNATTLSGLIPWDKVAREALTGP | soluble
MAQLYYKYGTMNSGKTIEILKVAHNYEEQGKPVVIMTSALDTRDGFGIVSSRIGMRREAIPISNDMDIFTFIAQLEEKPYCVLIDESQFLSKQNVYDLARVVDELNVPVMAFGLKNDFQNNLFEGSKHLLLLADKIDEIKTICQYCSKKATMVLRTENGKPVYEGDQIQIGGNETYIPVCRKHYFNPDI | not soluble
MAQLYYRYGTMNSGKTIEILKVAYNYEEQGKGVVIMTSALDTRDGVGYVSSRIGMKRPALAIEETTDIFGYIRDLPEKPYCVLVDEAQFLKRHHVYDLARVVDELDIPVMAFGLKNDFRNELFEGSKYLLLLADKIDEIKTICQYCKKKATMVLRTQDGLPVYDGEQIQIGGNETYISVCRKHYFAPMITSNKEQNYDNLEHHHHHH | soluble
